How the values were obtained:
Recombinant human HER2 [1] = target: T1, Recombinant human HER2 (human, UniProt P04626 23-652); assay: SPR, 25 C; Ka ratio to WT v10013;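 also: constructs captured via anti-human Fc on CM5 chip, HER2 ECD as analyte in duplicate dilutions, sensorgrams globally fit to 1:1 Langmuir model on Biacore T200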
T1 construct: extracellular domain; Analyte of the SPR assays; also called HER2 ECD; ECD2 of HER2
Description: (§1) The affinity towards HER2 ECD of the samples was measured by SPR on a Biacore T200 as follows. Between 2000 and 4000 RU of anti-human Fc injected at concentration between 5 and 10 μg/ml was immobilized on a CM5 chip using standard amine coupling. Antigen-binding constructs were captured on the anti-human Fc (injected at concentration at 0.51 microg/mL in PBST, 1 min at 10 microl/min) at response levels ranging from 120-270 RU. […] HER2 dilutions were analyzed in duplicates. Sensograms were fit globally to a 1: 1 Langmuir binding model, using the software provided with the Biacore T200. All experiments were conducted at 25° C.

Recombinant human HER2 [2] = target: T1, Recombinant human HER2; assay: calculated from the SPR Ka ratio to WT v10013;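 also: SPR at 25 °C with constructs captured on an anti-human Fc chip and HER2 extracellular domain as analyte, kinetics fitted to a 1:1 Langmuir model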
Recombinant human HER2 [3] = target: T1, Recombinant human HER2; assay: SPR, Biacore T200, 25 C; variant captured on anti-human Fc, HER2 flowed;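 also: HER2 extracellular domain analyte run as duplicate dilutions over amine-coupled anti-Fc on a CM5 chip, rates from global sensorgram fitting with a 1:1 Langmuir model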
Description: as §1

| Binder | Ka, mut/Ka, WT (Recombinant human HER2 [1]) [fold] | ΔΔG (Recombinant human HER2 [2]) [kcal/mol] | Kd (Recombinant human HER2 [3]) [nM] | koff (Recombinant human HER2 [3]) [s⁻¹] | kon (Recombinant human HER2 [3]) [M⁻¹ s⁻¹] |
| --- | --- | --- | --- | --- | --- |
| Variant 14030 (antibody, human IgG1, kappa, OA (one-armed) format; clones 7840, 7919, 4372; also called v14030) heavy: EVQLVESGGGLVQPGGSLRLSCAASGFTFTDYTMDWVRQAPGKGLEWVADVNPNSGGSIYNQRFKGRFTLSVDRWKNTLYLQMNSLRAEDTAVYYCARNLGPSFYFDYWGQGTLVTVSSASTKGPSVFPLAPSSKSTSGGTAALGCLVKDYFPEPVTVSWNSGALTSGVHTFPAVLQSSGLYSLSSVVTVPSSSLGTQTYICNVNHKPSNTKVDKKVEPKSCDKTHTCPPCPAPELLGGPSVFLFPPKPKDTLMISRTPEVTCVVVDVSHEDPEVKFNWYVDGVEVHNAKTKPREEQYNSTYRVVSVLTVLHQDWLNGKEYKCKVSNKALPAPIEKTISKAKGQPREPQVYVYPPSRDELTKNQVSLTCLVKGFYPSDIAVEWESNGQPENNYKTTPPVLDSDGSFALVSKLTVDKSRWQQGNVFSCSVMHEALHNHYTQKSLSLSPG light: not shown not shown | 13 | -1.5 | 1.3 | 8e-05 | 63000 |
| Variant 14038 (antibody, human IgG1, kappa, OA (one-armed) format; clones 8782, 1811, 4372; also called v14038) heavy: EVQLVESGGGLVQPGGSLRLSCAASGFTFQDYTMDWVRQAPGKGLEWVADVNPNSGGSIYNQRFKGRFTLSVDRSENTLYLQMNSLRAEDTAVYYCARNLGPSFYFDYWGQGTLVTVSSASTKGPSVFPLAPSSKSTSGGTAALGCLVKDYFPEPVTVSWNSGALTSGVHTFPAVLQSSGLYSLSSVVTVPSSSLGTQTYICNVNHKPSNTKVDKKVEPKSCDKTHTCPPCPAPELLGGPSVFLFPPKPKDTLMISRTPEVTCVVVDVSHEDPEVKFNWYVDGVEVHNAKTKPREEQYNSTYRVVSVLTVLHQDWLNGKEYKCKVSNKALPAPIEKTISKAKGQPREPQVYVYPPSRDELTKNQVSLTCLVKGFYPSDIAVEWESNGQPENNYKTTPPVLDSDGSFALVSKLTVDKSRWQQGNVFSCSVMHEALHNHYTQKSLSLSPG light: not shown not shown | 12 | -1.5 | 1.4 | 6.2e-05 | 43000 |
| Variant 14033 (antibody, human IgG1, kappa, OA (one-armed) format; clones 8779, 1811, 4372; also called v14033) heavy: EVQLVESGGGLVQPGGSLRLSCAASGFTFTDYTMDWVRQAPGKGLEWVADVNPNSGGSIYNQRFKGRFTLSVDRWENTLYLQMNSLRAEDTAVYYCARNLGPSFYFDYWGQGTLVTVSSASTKGPSVFPLAPSSKSTSGGTAALGCLVKDYFPEPVTVSWNSGALTSGVHTFPAVLQSSGLYSLSSVVTVPSSSLGTQTYICNVNHKPSNTKVDKKVEPKSCDKTHTCPPCPAPELLGGPSVFLFPPKPKDTLMISRTPEVTCVVVDVSHEDPEVKFNWYVDGVEVHNAKTKPREEQYNSTYRVVSVLTVLHQDWLNGKEYKCKVSNKALPAPIEKTISKAKGQPREPQVYVYPPSRDELTKNQVSLTCLVKGFYPSDIAVEWESNGQPENNYKTTPPVLDSDGSFALVSKLTVDKSRWQQGNVFSCSVMHEALHNHYTQKSLSLSPG light: not shown not shown | 10 | -1.4 | 1.7 | 9.9e-05 | 59000 |
| Variant 14039 (antibody, human IgG1, kappa, OA (one-armed) format; clones 7813, 7919, 4372; also called v14039) heavy: EVQLVESGGGLVQPGGSLRLSCAASGFTFYDYTMDWVRQAPGKGLEWVADVNPNSGGSIYNQRFKGRFTLSVDRSKNTLYLQMNSLRAEDTAVYYCARNLGPSFYFDYWGQGTLVTVSSASTKGPSVFPLAPSSKSTSGGTAALGCLVKDYFPEPVTVSWNSGALTSGVHTFPAVLQSSGLYSLSSVVTVPSSSLGTQTYICNVNHKPSNTKVDKKVEPKSCDKTHTCPPCPAPELLGGPSVFLFPPKPKDTLMISRTPEVTCVVVDVSHEDPEVKFNWYVDGVEVHNAKTKPREEQYNSTYRVVSVLTVLHQDWLNGKEYKCKVSNKALPAPIEKTISKAKGQPREPQVYVYPPSRDELTKNQVSLTCLVKGFYPSDIAVEWESNGQPENNYKTTPPVLDSDGSFALVSKLTVDKSRWQQGNVFSCSVMHEALHNHYTQKSLSLSPG light: not shown not shown | 18 | -1.7 | 1.1 | 5.5e-05 | 50000 |
| Variant 14035 (antibody, human IgG1, kappa, OA (one-armed) format; clones 7815, 7917, 4372; also called v14035) heavy: EVQLVESGGGLVQPGGSLRLSCAASGFTFQDYTMDWVRQAPGKGLEWVADVNPNSGGSIYNQRFKGRFTLSVDRSKNTLYLQMNSLRAEDTAVYYCARNLGPSFYFDYWGQGTLVTVSSASTKGPSVFPLAPSSKSTSGGTAALGCLVKDYFPEPVTVSWNSGALTSGVHTFPAVLQSSGLYSLSSVVTVPSSSLGTQTYICNVNHKPSNTKVDKKVEPKSCDKTHTCPPCPAPELLGGPSVFLFPPKPKDTLMISRTPEVTCVVVDVSHEDPEVKFNWYVDGVEVHNAKTKPREEQYNSTYRVVSVLTVLHQDWLNGKEYKCKVSNKALPAPIEKTISKAKGQPREPQVYVYPPSRDELTKNQVSLTCLVKGFYPSDIAVEWESNGQPENNYKTTPPVLDSDGSFALVSKLTVDKSRWQQGNVFSCSVMHEALHNHYTQKSLSLSPG light: not shown not shown | 18 | -1.7 | 0.91 | 4e-05 | 44000 |
| Variant 14041 (antibody, human IgG1, kappa, OA (one-armed) format; clones 8785, 1811, 4372; also called v14041) heavy: EVQLVESGGGLVQPGGSLRLSCAASGFTFYDYTMDWVRQAPGKGLEWVADVNPNSGGSIYNQRFKGRFTLSVDRSKNTLYLQMNSLRAEDTAVYYCARNLGPWFYFDYWGQGTLVTVSSASTKGPSVFPLAPSSKSTSGGTAALGCLVKDYFPEPVTVSWNSGALTSGVHTFPAVLQSSGLYSLSSVVTVPSSSLGTQTYICNVNHKPSNTKVDKKVEPKSCDKTHTCPPCPAPELLGGPSVFLFPPKPKDTLMISRTPEVTCVVVDVSHEDPEVKFNWYVDGVEVHNAKTKPREEQYNSTYRVVSVLTVLHQDWLNGKEYKCKVSNKALPAPIEKTISKAKGQPREPQVYVYPPSRDELTKNQVSLTCLVKGFYPSDIAVEWESNGQPENNYKTTPPVLDSDGSFALVSKLTVDKSRWQQGNVFSCSVMHEALHNHYTQKSLSLSPG light: not shown not shown | 17 | -1.7 | 1.1 | 5.8e-05 | 51000 |
| Variant 14031 (antibody, human IgG1, kappa, OA (one-armed) format; clones 8778, 1811, 4372; also called v14031) heavy: EVQLVESGGGLVQPGGSLRLSCAASGFTFQDYTMDWVRQAPGKGLEWVADVNPNSGGSIYNQRFKGRFTLSVDRWKNTLYLQMNSLRAEDTAVYYCARNLGPSFYFDYWGQGTLVTVSSASTKGPSVFPLAPSSKSTSGGTAALGCLVKDYFPEPVTVSWNSGALTSGVHTFPAVLQSSGLYSLSSVVTVPSSSLGTQTYICNVNHKPSNTKVDKKVEPKSCDKTHTCPPCPAPELLGGPSVFLFPPKPKDTLMISRTPEVTCVVVDVSHEDPEVKFNWYVDGVEVHNAKTKPREEQYNSTYRVVSVLTVLHQDWLNGKEYKCKVSNKALPAPIEKTISKAKGQPREPQVYVYPPSRDELTKNQVSLTCLVKGFYPSDIAVEWESNGQPENNYKTTPPVLDSDGSFALVSKLTVDKSRWQQGNVFSCSVMHEALHNHYTQKSLSLSPG light: not shown not shown | 8 | -1.2 | 2 | 9.9e-05 | 49000 |
| Variant 14034 (antibody, human IgG1, kappa, OA (one-armed) format; clones 3057, 8781, 4372; also called v14034) heavy: EVQLVESGGGLVQPGGSLRLSCAASGFTFTDYTMDWVRQAPGKGLEWVADVNPNSGGSIYNQRFKGRFTLSVDRSKNTLYLQMNSLRAEDTAVYYCARNLGPSFYFDYWGQGTLVTVSSASTKGPSVFPLAPSSKSTSGGTAALGCLVKDYFPEPVTVSWNSGALTSGVHTFPAVLQSSGLYSLSSVVTVPSSSLGTQTYICNVNHKPSNTKVDKKVEPKSCDKTHTCPPCPAPELLGGPSVFLFPPKPKDTLMISRTPEVTCVVVDVSHEDPEVKFNWYVDGVEVHNAKTKPREEQYNSTYRVVSVLTVLHQDWLNGKEYKCKVSNKALPAPIEKTISKAKGQPREPQVYVYPPSRDELTKNQVSLTCLVKGFYPSDIAVEWESNGQPENNYKTTPPVLDSDGSFALVSKLTVDKSRWQQGNVFSCSVMHEALHNHYTQKSLSLSPG light: not shown not shown | 12 | -1.4 | 1.5 | 8.5e-05 | 59000 |
| Variant 14040 (antibody, human IgG1, kappa, OA (one-armed) format; clones 8783, 1811, 4372; also called v14040) heavy: EVQLVESGGGLVQPGGSLRLSCAASGFTFTDYTMDWVRQAPGKGLEWVADVNPNSGGSIYNQRFKGRFTLSVDRSENTLYLQMNSLRAEDTAVYYCARNLGPWFYFDYWGQGTLVTVSSASTKGPSVFPLAPSSKSTSGGTAALGCLVKDYFPEPVTVSWNSGALTSGVHTFPAVLQSSGLYSLSSVVTVPSSSLGTQTYICNVNHKPSNTKVDKKVEPKSCDKTHTCPPCPAPELLGGPSVFLFPPKPKDTLMISRTPEVTCVVVDVSHEDPEVKFNWYVDGVEVHNAKTKPREEQYNSTYRVVSVLTVLHQDWLNGKEYKCKVSNKALPAPIEKTISKAKGQPREPQVYVYPPSRDELTKNQVSLTCLVKGFYPSDIAVEWESNGQPENNYKTTPPVLDSDGSFALVSKLTVDKSRWQQGNVFSCSVMHEALHNHYTQKSLSLSPG light: not shown not shown | 15 | -1.6 | 1.2 | 7.9e-05 | 64000 |
| Variant 14037 (antibody, human IgG1, kappa, OA (one-armed) format; clones 7843, 7919, 4372; also called v14037) heavy: EVQLVESGGGLVQPGGSLRLSCAASGFTFTDYTMDWVRQAPGKGLEWVADVNPNSGGSIYNQRFKGRFTLSVDRSENTLYLQMNSLRAEDTAVYYCARNLGPSFYFDYWGQGTLVTVSSASTKGPSVFPLAPSSKSTSGGTAALGCLVKDYFPEPVTVSWNSGALTSGVHTFPAVLQSSGLYSLSSVVTVPSSSLGTQTYICNVNHKPSNTKVDKKVEPKSCDKTHTCPPCPAPELLGGPSVFLFPPKPKDTLMISRTPEVTCVVVDVSHEDPEVKFNWYVDGVEVHNAKTKPREEQYNSTYRVVSVLTVLHQDWLNGKEYKCKVSNKALPAPIEKTISKAKGQPREPQVYVYPPSRDELTKNQVSLTCLVKGFYPSDIAVEWESNGQPENNYKTTPPVLDSDGSFALVSKLTVDKSRWQQGNVFSCSVMHEALHNHYTQKSLSLSPG light: not shown not shown | 12 | -1.5 | 1.4 | 8.3e-05 | 59000 |
